Starred links: 1 amine or outer side, 2 acyl side, 3 side chain; linkers in the order of their positions; H or OH if unused. No end group written: not given here. SO3H = sulfated tyrosine (Y*), O=S(=O)(O)[*:2]
Assays:
Conditions in all cases: remark: other sources report otherwise
Y1 scFv [1] = experiment: competition FACS, peptide 2.5 µM preincubated with Y1-scFv, washed platelets
Y1 scFv [2] = experiment: competition ELISA, peptide 2.5 µM preincubated with Y1 (0.25 µg/well), glycocalicin-coated plate
Y1 scFv [3] = experiment: competition FACS, peptide 200 µM preincubated with Y1-scFv, washed platelets
Y1 scFv [4] = experiment: competition ELISA, peptide 25 µM preincubated with Y1 (0.25 µg/well), glycocalicin-coated plate
Y1 scFv [5] = experiment: competition ELISA, peptide 200 µM preincubated with Y1 (0.25 µg/well), glycocalicin-coated plate
Y1 scFv [6] = experiment: competition ELISA, peptide 0.5 µM preincubated with Y1 (0.25 µg/well), glycocalicin-coated plate

Chain of Y1 scFv (chain, as listed by the source): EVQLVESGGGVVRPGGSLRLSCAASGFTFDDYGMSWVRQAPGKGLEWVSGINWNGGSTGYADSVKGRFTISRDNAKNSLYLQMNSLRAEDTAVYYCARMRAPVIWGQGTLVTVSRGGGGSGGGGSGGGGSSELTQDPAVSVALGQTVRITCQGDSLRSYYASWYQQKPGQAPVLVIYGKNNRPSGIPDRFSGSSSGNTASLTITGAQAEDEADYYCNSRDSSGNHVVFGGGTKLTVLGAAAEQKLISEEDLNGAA

GDEGDTDLY(SO3H)DY(SO3H)Y(SO3H)PEEDTE [P-1-S peptide (residues 268-285 of GPIbα, sulfated)]
Residual Binding of Y1 (% of baseline) (Geo Mean) (Y1 scFv [1]): 41% | Residual Binding of Y1 (% of baseline) (Y1 scFv [2]): 62% | Residual Binding of Y1 (% of baseline) (Geo Mean) (Y1 scFv [3]): 5% | Residual Binding of Y1 (% of baseline) (Y1 scFv [4]): 25% | Residual Binding of Y1 (% of baseline) (Y1 scFv [5]): 0% | Residual Binding of Y1 (% of baseline) (Y1 scFv [6]): 89%

— patent US20040001822A1, “Y1-isolated molecules comprising epitopes containing sulfated moieties, antibodies to such epitopes, and uses thereof” (priority 2000, published 2004)
